Here are results for three molecules from patent US12514920B1, “Respiratory syncytial virus mRNA vaccine, and preparation method therefor and use thereof” (Hangzhou Tianlong Pharmaceutical Co., Ltd., priority 2024, dated 2026).

Substitutions are numbered along the chain they refer to.

In one data set the test system is RSV F antibody (11A9). Description: ELISA binding of RSV F antigen mutants, epitope II. The note with it: for Binding amount to antibody/binding amount of PC-RSV-064 to antibody, Epitope II: antibody 11A9, relative to PC-RSV-064. The method, then: (§1) To investigate the binding of the RSV F antigen mutants to antibodies recognizing different epitopes, the binding amount was determined by an ELISA method in this example.
(§2) • 293T cells (purchased from ATCC cell bank); • Primary antibody: RSV pre-F antibody (3C12), epitope ([…] (Novoprotein, Cat. No.: DA101); • RSV pre-F antibody (7H11), epitope Quaternary (Novoprotein, Cat. No.: DA109); • RSV F antibody (11A9), epitope II (Novoprotein, Cat. No.: DA091); • RSV F antibody (4B9), epitope III (Novoprotein, Cat. No.: DA110); • RSV pre-F antibody (7E11), epitope V (Cat. No.: DA119); • Standard: RSV-pre-F trimer protein (Novoprotein, Cat. No.: DRA230); • Secondary antibody: peroxidase AffiniPure goat anti-human IgG (H+L) (Yeasen, Cat. No.: N/A); • Experimental group: mRNA vaccines after screening in Example 5;
(§3) Cell culture and transfection, and protein sample preparation: the experimental procedures were the same as in Example 3.
(§4) Detection of antigen expression by ELISA: the experimental procedures were the same as in Example 5.
(§5) In the present application, the binding of different mutant antigens to antibodies recognizing different epitopes was detected by ELISA, and the strength of the binding of the antigens to the antibodies was measured by the binding amount. (1) The RSV pre-F antibody (3C12) recognizing the epitope Φ binds only to the F protein in the pre-fusion conformation; (2) the RSV pre-F antibody (7H11) recognizes the epitope Quaternary (spanning both epitopes IV and V) and specifically binds to the F protein in the pre-fusion conformation; (3) the RSV F antibody (11A9) recognizing the epitope II can recognize both the pre-fusion and post-fusion conformations of the F protein; (4) the RSV F antibody […] recognizing the epitope III preferentially recognizes the pre-fusion conformation and has relatively weak binding activity for the post-fusion conformation; (5) the RSV pre-F antibody (7E11) recognizing the epitope V binds only to the F protein in the pre-fusion conformation.
A general note: ELISA stands for enzyme-linked immunosorbent assay.

Data set [1] has as its system RSV pre-F antibody (3C12). The class given is physicochemical. The note with it: for stability under the stress tests (in words): all stress tests, binding to 3C12, ELISA; for Stress resistance parameter, Osmotic pressure (mM) 3000: high osmotic pressure 3000 mM; for Stress resistance parameter, Osmotic pressure (mM) 3000 / Stress resistance parameter, Osmotic pressure (mM) 10: room temperature; for Stress resistance parameter, Osmotic pressure (mM) 3000 / Stress resistance parameter, Osmotic pressure (mM) 10 / Stress resistance parameter, pH 3.5 / Stress resistance parameter, pH 10: 60 min; for Stress resistance parameter, Osmotic pressure (mM) 3000 / Stress resistance parameter, Temperature (° C.) 50 / Stress resistance parameter, Osmotic pressure (mM) 10 / Stress resistance parameter, pH 3.5 / Stress resistance parameter, pH 10 / Stress resistance parameter, Temperature (° C.) 4: ELISA binding to 3C12; for Stress resistance parameter, Temperature (° C.) 50: incubation at 50° C. for 60 min; for Stress resistance parameter, Osmotic pressure (mM) 10: low osmotic pressure 10 mM; for Stress resistance parameter, pH 3.5: pH 3.5, room temperature; for Stress resistance parameter, pH 10: pH 10, room temperature; for Stress resistance parameter, Temperature (° C.) 4: storage at 4° C. for one week. In outline: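 RSV F mRNA-vaccine mutants stress-treated: 4° C. for one week, 50° C. for 60 min, low or high osmotic pressure at room temperature for 60 min, acid or base at room temperature for 60 min. Binding to 3C12 (epitope Φ) then measured by ELISA against pre-F trimer standard, HRP anti-human IgG, OD 450/630 nm.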

Data set [2] relates to RSV pre-F antibody (7H11). The data set is described as follows: ELISA binding of RSV F antigen mutants, epitope Quaternary. The settings on record: for Binding amount to antibody/binding amount of PC-RSV-064 to antibody, Epitope Quaternary: antibody 7H11, relative to PC-RSV-064. The method, then:
as §1, §2, §3, §4, §5

For another data set, the system named is RSV F antibody (4B9). Description: ELISA binding of RSV F antigen mutants, epitope III. The note with it: for Binding amount to antibody/binding amount of PC-RSV-064 to antibody, Epitope III: antibody 4B9, relative to PC-RSV-064. The procedure: as §1, §2, §3, §4, §5
Data set [3] has as its system RSV pre-F antibody (3C12). The data set is described as follows: ELISA binding of RSV F antigen mutants, epitope Φ. The note with it: for Binding amount to antibody/binding amount of PC-RSV-064 to antibody, Epitope Φ: antibody 3C12, relative to PC-RSV-064. The procedure:
as §1, §2, §3, §4, §5

B1: YK-RSV-055 (protein)
chain: QNITEEFYQSTCSAVSKGYLGALRTGWYTSVITIELSNIKENKCNGTDAKVKLIKQELDKYKNAVTDLQLLMQSTPATGSGSCIASGVAVSKVLHLEGEVNKIKSALLSTNKAVVSLSNGVSVLTFKVLDLKNYIDKQLLPILNKQSCSIPNIETVIEFQQKNNRLLEITREFSVNAGVTTPVSTYMLTNSELLSLINDMPITNDQKKLMSNNVQIVRQQSYSIMSICKEEVLAYVVQLPLYGVIDTPCWKLHTSPLCTTNTKEGSNICLTRTDRGWYCDNAGSVSFFPQAETCKVQSNRVFCDTMNSRTLPSEVNLCNVDIFNPKYDCKIMTSKTDVSSSVITSLGAIVSCYGKTKCTASNKNRGIIKTFSNGCDYVSNKGVDTVSVGNTLYYVNKQEGQSLYVKGEPIINFYDPLVFPSDEFDASISQVNEKINQSLAFIRKSDELLHNVNAGKSTTNIMITTIIIVIIVILLSLIAVGLLLY
Consider B1, for which, in the data set with RSV F antibody (11A9), the “ELISA binding amount, Epitope II, RSV F antibody (11A9)” value (shortened to “ELISA binding amount … (11A9)”) was determined as 3856 ng/mL and the “Binding amount to antibody/binding amount of PC-RSV-064 to antibody, Epitope II” value amounted to 1.84. For the same molecule, in data set [1], the “stability under the stress tests (in words)” value (shortened to “stability”) is on record as “superior stability”; the “Stress resistance parameter, Osmotic pressure (mM) 3000” value is reported as 0.71 ± 0.23; the “Stress resistance parameter, Temperature (° C.) 50” value came out at 0.78 ± 0.19; the “Stress resistance parameter, Osmotic pressure (mM) 10” value (shortened to “Stress resistance parameter … (mM) 10”) turned out to be 0.72 ± 0.20. In addition, in data set [1], the “Stress resistance parameter, pH 3.5” value was found to be 0.69 ± 0.08; the “Stress resistance parameter, pH 10” value came out at 0.79 ± 0.26; the “Stress resistance parameter, Temperature (° C.) 4” value is 0.48 ± 0.11. For the same molecule, in data set [2], the “ELISA binding amount, Epitope Quaternary, RSV pre-F antibody (7H11)” value (shortened to “ELISA binding amount, Epitope Quaternary”) stood at 4317 ng/mL and the “Binding amount to antibody/binding amount of PC-RSV-064 to antibody, Epitope Quaternary” value was 1.20. Moreover, in the data set with RSV F antibody (4B9), the “ELISA binding amount, Epitope III, RSV F antibody (4B9)” value (“ELISA binding amount, Epitope III” below) turned out to be 7298 ng/mL and the “Binding amount to antibody/binding amount of PC-RSV-064 to antibody, Epitope III” value is given as 2.54. Moreover, in data set [3], the “ELISA binding amount, Epitope Φ, RSV pre-F antibody (3C12)” value (“ELISA binding amount, Epitope Φ” for short) came out at 8589 ng/mL and the “Binding amount to antibody/binding amount of PC-RSV-064 to antibody, Epitope Φ” value amounted to 3.10.

B2: YK-RSV-057 (protein)
chain: B1 chain with I227C, C228I
Consider B2, for which, in the data set with RSV F antibody (11A9), the “ELISA binding amount … (11A9)” value was determined as 2823 ng/mL and the “Binding amount to antibody/binding amount of PC-RSV-064 to antibody, Epitope II” value was 1.34. Besides, in data set [1], the “stability” value is “superior stability”; the “Stress resistance parameter, Osmotic pressure (mM) 3000” value is reported as 0.64 ± 0.15; the “Stress resistance parameter, Temperature (° C.) 50” value is recorded as 0.64 ± 0.17; the “Stress resistance parameter … (mM) 10” value is 0.70 ± 0.07. Also, in data set [1], the “Stress resistance parameter, pH 3.5” value is recorded as 0.56 ± 0.08; the “Stress resistance parameter, pH 10” value was 0.56 ± 0.09; the “Stress resistance parameter, Temperature (° C.) 4” value is listed as 0.61 ± 0.10. In data set [2], the “ELISA binding amount, Epitope Quaternary” value came out at 6346 ng/mL and the “Binding amount to antibody/binding amount of PC-RSV-064 to antibody, Epitope Quaternary” value is given as 1.76. Moreover, in the data set on RSV F antibody (4B9), the “ELISA binding amount, Epitope III” value amounted to 4779 ng/mL and the “Binding amount to antibody/binding amount of PC-RSV-064 to antibody, Epitope III” value turned out to be 1.67. In data set [3], the “ELISA binding amount, Epitope Φ” value was found to be 5210 ng/mL and the “Binding amount to antibody/binding amount of PC-RSV-064 to antibody, Epitope Φ” value is listed as 1.88.

B3: YK-RSV-050 (protein)
chain: QNITEEFYQSTCSAVSKGYLGALRTGWYTSVITIELSNIKENKCNGTDAKVKLIKQELDKYKNAVTDLQLLMQSTPATGSGSFLGFCLGVGSAIASGVAVSKVLHLEGEVNKIKSALLSTNKAVVSLSNGVSVLTFKVLDLKNYIDKQLLPILNKQSCSIPNIETVIEFQQKNNRLLEITREFSVNAGVTTPVSTYMLTNSELLSLINDMPITNDQKKLMSNNVQIVRQQSYSIMSIIKEEVLAYVVQLPLYGVIDTPCWKLHTSPLCTTNTKEGSNICLTRTDRGWYCDNAGSVSFFPQAETCKVQSNRVFCDTMCSRTLPSEVNLCNVDIFNPKYDCKIMTSKTDVSSSVITSLGAIVSCYGKTKCTASNKNRGIIKTFSNGCDYVSNKGVDTVSVGNTLYYVNKQEGQSLYVKGEPIINFYDPLVFPSDEFDASISQVNEKINQSLAFIRKSDELLHNVNAGKSTTNIMITTIIIVIIVILLSLIAVGLLLY
Consider B3, for which, in the data set with RSV F antibody (11A9), the “ELISA binding amount … (11A9)” value was determined as 2474 ng/mL and the “Binding amount to antibody/binding amount of PC-RSV-064 to antibody, Epitope II” value came to 1.18. In data set [1], the “stability” value was “superior stability”; the “Stress resistance parameter, Osmotic pressure (mM) 3000” value was 0.66 ± 0.15; the “Stress resistance parameter, Temperature (° C.) 50” value stood at 0.69 ± 0.15; the “Stress resistance parameter … (mM) 10” value was 0.87 ± 0.19. In data set [1], the “Stress resistance parameter, pH 3.5” value stood at 1.23 ± 0.27; the “Stress resistance parameter, pH 10” value came out at 1.16 ± 0.37; the “Stress resistance parameter, Temperature (° C.) 4” value came to 0.46 ± 0.07. Also, in data set [2], the “ELISA binding amount, Epitope Quaternary” value worked out at 3722 ng/mL and the “Binding amount to antibody/binding amount of PC-RSV-064 to antibody, Epitope Quaternary” value is on record as 1.03. In the data set on RSV F antibody (4B9), the “ELISA binding amount, Epitope III” value was determined as 3494 ng/mL and the “Binding amount to antibody/binding amount of PC-RSV-064 to antibody, Epitope III” value came out at 1.22. Further, the “binding of epitope Φ, epitope Quaternary and epitope V to the corresponding antibodies (in words)” value in data set [3] (ELISA, antibodies 3C12, 7H11, 7E11) is “able to well bind”. Also, in data set [3], the “ELISA binding amount, Epitope Φ” value was found to be 3068 ng/mL and the “Binding amount to antibody/binding amount of PC-RSV-064 to antibody, Epitope Φ” value came out at 1.11.
